From US20190241648A1 (STATEN BIOTECHNOLOGY B V, published 2019)
Ends that are not written are not given here.

What was measured:
Assay in all cases: cyclic peptide substitution array
ApoC3 peptide E70C = target: T1, ApoC3 peptide E70C (human, cyclic (thioether))
T1 peptide: DKFSEFWDLDPCV
How it was run: (§1)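 Peptide microarrays incubated with antibody samples, then stained with goat anti-human IgG (Fc) DyLight680 and anti-HA DyLight800 control antibodies, scanned at intensity 7/7 (red/green). Secondary-only pre-stain checked background binding; framing HA peptides served as quality control; substitution effects read as changes in spot intensity.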

ApoC3 peptide K60D = target: T2, ApoC3 peptide K60D (human, thioether (positions not given here); not fully specified (bridges); also: cyclic (thioether), positions not given here)
T2 peptide: DDFSEFWDLDPEV
How it was run: as §1

ApoC3 peptide S62D = target: T3, ApoC3 peptide S62D (human, not fully specified; cyclic (thioether))
T3 peptide: DKFDEFWDLDPEV
How it was run: as §1

ApoC3 peptide S62E = target: T4, ApoC3 peptide S62E (human, not fully specified; cyclic (thioether))
T4 peptide: DKFEEFWDLDPEV
How it was run: as §1

ApoC3 peptide E63F = target: T5, ApoC3 peptide E63F (human, not fully specified; cyclic (thioether))
T5 peptide: DKFSFFWDLDPEV
How it was run: as §1

ApoC3 peptide D66F = target: T6, ApoC3 peptide D66F (human, not fully specified; cyclic (thioether))
T6 peptide: DKFSEFWFLDPEV
How it was run: as §1

ApoC3 peptide P69F = target: T7, ApoC3 peptide P69F (human, not fully specified; cyclic (thioether))
T7 peptide: DKFSEFWDLDFEV
How it was run: as §1

ApoC3 peptide W65G = target: T8, ApoC3 peptide W65G (human, not fully specified; cyclic (thioether))
T8 peptide: DKFSEFGDLDPEV
How it was run: as §1

ApoC3 peptide D68G = target: T9, ApoC3 peptide D68G (human, cyclic (thioether))
T9 peptide: DKFSEFWDLGPEV
How it was run: as §1

ApoC3 peptide V71G = target: T10, ApoC3 peptide V71G (human, thioether (positions not given here); also: cyclic (thioether), ring places not given here)
T10 peptide: DKFSEFWDLDPEG
How it was run: as §1

ApoC3 peptide D59H = target: T11, ApoC3 peptide D59H (human, thioether (positions not given here); not fully specified (C-terminus, bridges))
T11 peptide: HKFSEFWDLDPEV
How it was run: as §1

ApoC3 peptide E70H = target: T12, ApoC3 peptide E70H (human, cyclic (thioether))
T12 peptide: DKFSEFWDLDPHV
How it was run: as §1

ApoC3 peptide F64I = target: T13, ApoC3 peptide F64I (human, thioether (positions not given here); not fully specified (bridges); also: cyclic (thioether), positions not given here)
T13 peptide: DKFSEIWDLDPEV
How it was run: as §1

ApoC3 peptide L67I = target: T14, ApoC3 peptide L67I (human, thioether (positions not given here); not fully specified (bridges); also: thioether between a C-terminal Cys side chain and a modified N-terminus, the Cys is not in the chain)
T14 peptide: DKFSEFWDIDPEV
How it was run: as §1

ApoC3 peptide F61K = target: T15, ApoC3 peptide F61K (human, cyclic (thioether))
T15 peptide: DKKSEFWDLDPEV
How it was run: as §1

ApoC3 peptide D68K = target: T16, ApoC3 peptide D68K (human, cyclic (thioether))
T16 peptide: DKFSEFWDLKPEV
How it was run: as §1

ApoC3 peptide K60L = target: T17, ApoC3 peptide K60L (human, cyclic (thioether))
T17 peptide: DLFSEFWDLDPEV
How it was run: as §1

ApoC3 peptide F61L = target: T18, ApoC3 peptide F61L (human, cyclic (thioether))
T18 peptide: DKLSEFWDLDPEV
How it was run: as §1

ApoC3 peptide V71L = target: T19, ApoC3 peptide V71L (human, thioether (positions not given here); also: cyclic (thioether), ring places not given here)
T19 peptide: DKFSEFWDLDPEL
How it was run: as §1

ApoC3 peptide K60M = target: T20, ApoC3 peptide K60M (human, cyclic (thioether))
T20 peptide: DMFSEFWDLDPEV
How it was run: as §1

ApoC3 peptide K60Q = target: T21, ApoC3 peptide K60Q (human, cyclic (thioether))
T21 peptide: DQFSEFWDLDPEV
How it was run: as §1

ApoC3 peptide W65Q = target: T22, ApoC3 peptide W65Q (human, cyclic (thioether))
T22 peptide: DKFSEFQDLDPEV
How it was run: as §1

ApoC3 peptide D68Q = target: T23, ApoC3 peptide D68Q (human, cyclic (thioether))
T23 peptide: DKFSEFWDLQPEV
How it was run: as §1

ApoC3 peptide E70Q = target: T24, ApoC3 peptide E70Q (human, cyclic (thioether))
T24 peptide: DKFSEFWDLDPQV
How it was run: as §1

ApoC3 peptide K60R = target: T25, ApoC3 peptide K60R (human, cyclic (thioether))
T25 peptide: DRFSEFWDLDPEV
How it was run: as §1

ApoC3 peptide E63S = target: T26, ApoC3 peptide E63S (human, cyclic (thioether))
T26 peptide: DKFSSFWDLDPEV
How it was run: as §1

ApoC3 peptide D68S = target: T27, ApoC3 peptide D68S (human, cyclic (thioether))
T27 peptide: DKFSEFWDLSPEV
How it was run: as §1

ApoC3 peptide E63V = target: T28, ApoC3 peptide E63V (human, cyclic (thioether))
T28 peptide: DKFSVFWDLDPEV
How it was run: as §1

ApoC3 peptide E70V = target: T29, ApoC3 peptide E70V (human, cyclic (thioether))
T29 peptide: DKFSEFWDLDPVV
How it was run: as §1

ApoC3 peptide F64Y = target: T30, ApoC3 peptide F64Y (human, thioether (positions not given here); not fully specified (bridges); also: cyclic (thioether), positions not given here)
T30 peptide: DKFSEYWDLDPEV
How it was run: as §1

ApoC3 peptide D66A = target: T31, ApoC3 peptide D66A (human, not fully specified; cyclic (thioether))
T31 peptide: DKFSEFWALDPEV
How it was run: as §1

ApoC3 peptide K60C = target: T32, ApoC3 peptide K60C (human, thioether (positions not given here); not fully specified (bridges); also: cyclic (thioether), positions not given here)
T32 peptide: DCFSEFWDLDPEV
How it was run: as §1

% of binding to wild-type peptide (ApoC3 peptide E70C): 27.1% | % of binding to wild-type peptide (ApoC3 peptide K60D): 200% | % of binding to wild-type peptide (ApoC3 peptide S62D): 0% | % of binding to wild-type peptide (ApoC3 peptide S62E): 0% | % of binding to wild-type peptide (ApoC3 peptide E63F): 57.1% | % of binding to wild-type peptide (ApoC3 peptide D66F): 0% | % of binding to wild-type peptide (ApoC3 peptide P69F): 11.6% | % of binding to wild-type peptide (ApoC3 peptide W65G): 0% | % of binding to wild-type peptide (ApoC3 peptide D68G): 3.59% | % of binding to wild-type peptide (ApoC3 peptide V71G): 91.9% | % of binding to wild-type peptide (ApoC3 peptide D59H): 52.8% | % of binding to wild-type peptide (ApoC3 peptide E70H): 50.5% | % of binding to wild-type peptide (ApoC3 peptide F64I): 69.3% | % of binding to wild-type peptide (ApoC3 peptide L67I): 46.9% | % of binding to wild-type peptide (ApoC3 peptide F61K): 13.5% | % of binding to wild-type peptide (ApoC3 peptide D68K): 0.04% | % of binding to wild-type peptide (ApoC3 peptide K60L): 107% | % of binding to wild-type peptide (ApoC3 peptide F61L): 63.4% | % of binding to wild-type peptide (ApoC3 peptide V71L): 90.6% | % of binding to wild-type peptide (ApoC3 peptide K60M): 186% | % of binding to wild-type peptide (ApoC3 peptide K60Q): 178% | % of binding to wild-type peptide (ApoC3 peptide W65Q): 0% | % of binding to wild-type peptide (ApoC3 peptide D68Q): 0.96% | % of binding to wild-type peptide (ApoC3 peptide E70Q): 68% | % of binding to wild-type peptide (ApoC3 peptide K60R): 112% | % of binding to wild-type peptide (ApoC3 peptide E63S): 47.9% | % of binding to wild-type peptide (ApoC3 peptide D68S): 0.17% | % of binding to wild-type peptide (ApoC3 peptide E63V): 4.2% | % of binding to wild-type peptide (ApoC3 peptide E70V): 57% | % of binding to wild-type peptide (ApoC3 peptide F64Y): 118% | % of binding to wild-type peptide (ApoC3 peptide D66A): 0% | % of binding to wild-type peptide (ApoC3 peptide K60C): 67.2%
B1: Llama antibody 5E5 (antibody, V domains shown)
VH: QLQLVESGGGLVQPGGSLRLSCAASGFTFGTYSMRWVRQVPRKALEWVSSISTDGGGTAYRDSVKGRFTISRDNAKNTLYLQMNNLKPEDTAIYYCVIAGYSDWGQGTQVTVSS
VL: ATMLTQSPGSLSVVPGESASISCKTSQGLVHSDGKTYFYWFLQKPGQSPQQLIYQVSNRASGVPDRFTGSGSGTDFTLKISGVKAEDAGVYYCAQGTYYPHTFGSGTRLEIK
notes: detected with goat anti-human IgG (Fc); also called mAb 5E5
